The target in the test is full-length BCL-XL (UniProt Q07817-1 1-233). As to the kind of experiment: fluorescence polarisation. In general terms: Polarisation of emitted light reports the rotation of a fluorescent probe.

Bridges are numbered along the chain shown (N, C = ends). Where no end group is shown, it is not given here. [ ]: non-standard residue; d: D form. The star is where a group is joined. FITC = O=C1OC2(c3ccc(O)cc3Oc3cc(O)ccc32)c2ccc(NC(=S)*)cc21; olefin residue = not defined here

Results on one molecule are retold here after article PMC6839450 (ACS chemical biology, 2015).

Chain of full-length BCL-XL (Q07817 whole entry): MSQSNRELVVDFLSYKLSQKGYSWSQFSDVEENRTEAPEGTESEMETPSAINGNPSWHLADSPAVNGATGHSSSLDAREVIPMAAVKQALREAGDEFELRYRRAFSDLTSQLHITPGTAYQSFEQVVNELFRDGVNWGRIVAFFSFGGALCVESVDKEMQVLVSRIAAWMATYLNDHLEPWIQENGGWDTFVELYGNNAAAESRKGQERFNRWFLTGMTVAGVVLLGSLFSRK

As usually defined, the Kd is the concentration at which binding is half-saturated. The low end stands for a tighter complex, the high end for a looser complex. For the molecule {FITC}-EIWIAQELR[olefin residue]IGD[olefin residue]FNAYYA (staple 10-14; not fully specified; reading uncertain) [FITC-BIM SAHBA2], the affinity, expressed as Kd, was 68 nM.
